Columns and labels:
[1] = target: PCY1:S562A (Saponaria vaccaria) (UniProt R4P353); assay: ITC
PCY1 = assay type: biochemical, Saponaria vaccaria; conditions: LC/MS (ion count); 30 °C; pH 8.5
PCY1:S562A = target: T1, PCY1:S562A (Saponaria vaccaria, UniProt R4P353 1-724, S562A); assay: ITC
T1 sequence: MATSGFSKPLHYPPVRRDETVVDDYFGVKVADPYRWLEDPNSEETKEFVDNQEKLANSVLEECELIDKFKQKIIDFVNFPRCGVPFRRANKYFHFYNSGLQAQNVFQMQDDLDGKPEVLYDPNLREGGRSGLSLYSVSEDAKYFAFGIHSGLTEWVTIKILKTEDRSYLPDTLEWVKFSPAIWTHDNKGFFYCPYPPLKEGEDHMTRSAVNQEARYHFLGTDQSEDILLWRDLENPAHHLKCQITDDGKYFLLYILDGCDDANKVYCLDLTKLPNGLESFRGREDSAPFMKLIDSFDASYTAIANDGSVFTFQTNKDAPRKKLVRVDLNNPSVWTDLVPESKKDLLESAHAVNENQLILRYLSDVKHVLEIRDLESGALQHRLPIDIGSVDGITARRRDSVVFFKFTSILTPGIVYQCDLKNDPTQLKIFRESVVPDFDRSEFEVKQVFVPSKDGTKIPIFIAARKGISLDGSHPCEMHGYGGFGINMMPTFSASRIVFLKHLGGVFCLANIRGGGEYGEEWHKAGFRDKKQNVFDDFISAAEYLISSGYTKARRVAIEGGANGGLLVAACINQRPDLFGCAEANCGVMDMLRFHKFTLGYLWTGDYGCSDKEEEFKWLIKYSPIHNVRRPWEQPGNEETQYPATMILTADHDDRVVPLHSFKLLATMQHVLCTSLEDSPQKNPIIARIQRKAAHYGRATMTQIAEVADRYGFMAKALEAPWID

presegetalin A1 (peptide)
Kd [1]: 173 nM

presegetalin F1 (peptide)
Kd [1]: 136 nM

presegetalin D1 (peptide)
Kd [1]: 250 nM

presegetalin B1 (peptide)
Kd [1]: 238 nM

FSASYSSKP FQA
kcat/Km (PCY1): 1200 s^–1 M^–1

B1: DNASAPV (peptide)
peptide: DNASAPV
Kd (PCY1:S562A): 9580 ± 580 nM
